Data on 2 molecules can be found in PMC2790157.

This data set has as its target NF-kB p50 (UniProt P19838 1-433). Briefly: EMSA. (In general: A gel shift assay detects complexes by their altered migration in electrophoresis.)

NF-kB p50, sequence (P19838 1-433): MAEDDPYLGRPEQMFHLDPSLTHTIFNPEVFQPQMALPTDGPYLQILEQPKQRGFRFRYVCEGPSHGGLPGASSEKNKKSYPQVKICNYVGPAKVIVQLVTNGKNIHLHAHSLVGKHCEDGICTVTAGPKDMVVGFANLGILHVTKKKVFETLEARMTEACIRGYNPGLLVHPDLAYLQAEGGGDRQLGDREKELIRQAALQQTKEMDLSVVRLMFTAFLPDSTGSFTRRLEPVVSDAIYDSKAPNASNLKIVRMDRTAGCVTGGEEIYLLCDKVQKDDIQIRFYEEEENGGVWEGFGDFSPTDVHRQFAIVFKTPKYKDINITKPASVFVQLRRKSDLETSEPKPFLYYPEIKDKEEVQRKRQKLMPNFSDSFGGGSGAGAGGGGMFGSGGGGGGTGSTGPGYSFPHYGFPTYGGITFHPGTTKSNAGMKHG

B1: ING2 promoter putative NF-kB site (dsDNA)
DNA 1: CGCCGAGGGGATCCCCACTGCT
DNA 2: AGCAGTGGGGATCCCCTCGGCG
Take B1: the binding result is on record as “binds”.

B2: NF-kB consensus (dsDNA)
DNA 1: AGTTGAGGGGACTTTCCCAGGC
DNA 2: GCCTGGGAAAGTCCCCTCAACT
For the molecule B2, the binding result is “binds”.
